{
  "source": "paper doi:10.1101/2025.09.03.673926",
  "key": {"[1]": {"biological_target": "TgSNF2L (aa 1 to 1556) (Toxoplasma gondii)", "assay": "mass photometry"}, "[2]": {"biological_target": "TgSNF2L (aa 1 to 1556) (Toxoplasma gondii)", "assay": "SEC-MALS"}, "[3]": {"biological_target": "TgSNF2LΔHydra (aa 1 to 1556 with an internal deletion between aa 880 and 1040) (Toxoplasma gondii)", "assay": "mass photometry"}, "[4]": {"biological_target": "TgSNF2LΔHydra (aa 1 to 1556 with an internal deletion between aa 880 and 1040) (Toxoplasma gondii)", "assay": "SEC-MALS"}, "[5]": {"biological_target": "TgSNF2L Hydra domain (886-1057) (Toxoplasma gondii)", "assay": "native gel or EMSA"}, "[6]": {"biological_target": "TgSNF2L Hydra domain (886-1057) (Toxoplasma gondii)", "assay": "mass photometry"}, "[7]": {"biological_target": "TgSNF2L Hydra domain (886-1057) (Toxoplasma gondii)", "assay": "SEC-MALS"}},
  "note": "Several values for one entry are separate records, joined by “and”; a condition that tells them apart may be missing. Identical values can stand only once.",
  "data": [
    {"substance": "TgSNF2L (aa 1 to 1556) (enzyme)", "values": [
      {"measurement": "percent of particles dimeric", "setting": "[1]", "value": 11, "unit": "%"},
      {"measurement": "percent of particles monomeric", "setting": "[1]", "value": 22, "unit": "%"},
      {"measurement": "percent of particles tetrameric and bigger", "setting": "[1]", "value": 59, "unit": "%"},
      {"measurement": "stoichiometry N", "setting": "[2]", "value": 4}
    ]},
    {"substance": "TgSNF2LΔHydra (aa 1 to 1556 with an internal deletion between aa 880 and 1040) (enzyme)", "values": [
      {"measurement": "percent of particles monomeric and dimeric", "setting": "[3]", "value": 71, "unit": "%"},
      {"measurement": "percent of particles tetrameric and higher", "setting": "[3]", "value": 19, "unit": "%"},
      {"measurement": "stoichiometry N", "setting": "[4]", "value": 2}
    ]},
    {"substance": "TgSNF2L Hydra domain (886-1057) (domain or fragment)", "values": [
      {"measurement": "stoichiometry N", "setting": "[5]", "value": "10 and 20"},
      {"measurement": "stoichiometry N", "setting": "[6]", "value": 10},
      {"measurement": "stoichiometry N", "setting": "[7]", "value": 10}
    ]}
  ]
}
